Earlier results on one sequence are cited in article PMC12564422.

For the series, the target named is EGFR (epidermal growth factor receptor) (UniProt P00533). The series can be described thus: cited. The note with it: 3'-thiol; about 50 nm AuNPs, resuspended in water; aptamer M and Atto 1.2e-7 M, EGFR 880 pM, 1 h incubation; Tris-EDTA buffer listed among materials; salt, pH and ….

A word on the Kd: it is the constant that tells how readily two partners part at equilibrium. For “GGACGGATTTAATCGCCGTAGAAAAGCATGTCAAAGCCGGAACCGTCC [aptamer M (EGFR-specific)]”, the Kd was 2.4 nM.
